Measured values reported in US20240307453A1, “METHODS FOR CONTROLLING BLEEDING IN A SUBJECT AFFLICTED WITH HERMANSKY PUDLAK SYNDROME USING PLATELET DERIVATIVE COMPOSITIONS” (Cellphire, Inc., priority 2023, published 2024).

Legend:
[1] = system: phosphatidylserine (PS) surface on FPH; assay: T-TAS of FPH with increasing dose of lactadherin; format: biochemical, human; conditions: highest lactadherin concentration (200 μg/mL), FPH 8×10^4 cells/μl
Description: Cells were adjusted to 8×10^4 cells/μl by diluting in Octaplas and in preparations of either 0, 100, or 200 μg/mL of lactadherin and incubated for 30 minutes at room temperature before acquisition on T-TAS® (Zacros®, zacros.con.co.jp). Samples (480 μl) were normalized to the above counts and then transferred to microcentrifuge tubes containing 20 ul of CaCTI (CaCl2 and corn trypsin inhibitor). The CaCTI-treated samples were transferred to sample reservoirs on a T-TAS®. The sample reservoirs were then inserted into the AR microfluidic chips and acquired on the T-TAS. […] This confirms the necessity of retaining the negatively charged PS surface on FPH to generate thrombin.

phosphatidylserine (PS) = assay: FPH thrombin generation response to PS blocking by lactadherin; format: biochemical, human
Description: Lactadherin (Haematologic Technologies, haemtech.com) was thawed per manufacturer instructions. FPHs were incubated with lactadherin at room temperature for 30 minutes at a concentration of 0, 25, 50, 100, and 200 μg/ml. 60 mM GPRP (BACHEM, bachem.com), thrombin (Sigma Aldrich, sigmaaldrich.com) and Octoplas (Octophrama, octopharma.com) were thawed according to manufacturer's guidelines. CLARIOstarPlus was used to perform TGA. A master mix of Octaplas, PRP reagent (Diagnostica Stago, Cat. No. 86196), and GPRP was prepared in a ratio of 14:3:1, respectively. Flu substrate and Fluo-buffer were combined according to manufacturer's guidelines to create FluCa (Diagnostica Stago, stago.com). Master mix and the FluCa solution were placed in the 37° C. air incubator with agitation for 45±5 minutes. […] 10 μl of each sample was dispensed into selected wells of a 96-well plate (Corning, corning.com) by reverse pipetting. TGA dilution buffer for thrombin was used in the thrombin standard ladder. CLARIOstarPlus injectors 1 and 2 were primed with master mix and FluCa solution with 250 μl, then the injector was placed in the active position. The CLARIOstarPlus TGA program was loaded with parameters for TGA assay with injectors set to add 90 μl of master mix and 40 μl of FluCa solution to each well. Plate was inserted to be read.

B1: lactadherin: lactadherin used to block PS expression (protein, UniProt Q95114 19-427, looked up)
Lactadherin: ASGDFCDSSLCLHGGTCLLNEDRTPPFYCLCPEGFTGLLCNETEHGPCFPNPCHNDAECQVTDDSHRGDVFIQYICKCPLGYVGIHCETTCTSPLGMQTGAIADSQISASSMHLGFMGLQRWAPELARLHQTGIVNAWTSGNYDKNPWIQVNLMRKMWVTGVVTQGASRAGSAEYLKTFKVAYSTDGRQFQFIQVAGRSGDKIFIGNVNNSGLKINLFDTPLETQYVRLVPIICHRGCTLRFELLGCELNGCTEPLGLKDNTIPNKQITASSYYKTWGLSAFSWFPYYARLDNQGKFNAWTAQTNSASEWLQIDLGSQKRVTGIITQGARDFGHIQYVAAYRVAYGDDGVTWTEYKDPGASESKIFPGNMDNNSHKKNIFETPFQARFVRIQPVAWHNRITLRVELLGC
B1 was tested, and the “effect on time to thrombus formation of FPH” value [1] was “approximately doubled the time to thrombus formation”, the “thrombin generation of FPH” value (phosphatidylserine (PS); lactadherin 0, 25, 50, 100, 200 μg/ml) was “decreasing thrombin generation” and the “maximum peak time of thrombin generation of FPH” value (phosphatidylserine (PS); lactadherin 0-200 μg/ml, 1:64 dilution) was “increasing maximum peak time”.
